Source: publication PMC7817217 (Proceedings of the National Academy of Sciences of the …, 2020)

Target: SARS-CoV-2 spike protein receptor binding domain (RBD) (SARS-CoV-2, UniProt P0DTC2 319-541)
Assay: SPR

B1: bACE2-Rm (H41-Q42) mutant, mouse Fc tagged (Fc fusion)
chain: STTEDEAKKFLDKFNSKAEDLSHQSSLASWDYNTNISDENVQKMDEAGAKWSAFYEEQSKLAKNYPLEEIQNDTVKRQLQILQQSGSPVLSEDKSKRLNSILNAMSTIYSTGKVCKPNNPQECLLLEPGLDNIMGTSKDYNERLWAWEGWRAEVGKQLRPLYEEYVVLKNEMARGYHYEDYGDYWRRDYETEESSGPGYSRDQLMKDVDRIFTEIKPLYEHLHAYVRAKLMDTYPLHISPTGCLPAHLLGDMWGRFWTNLYPLTVPFGQKPNIDVTDAMLNQGWDANRIFKEAEKFFVSVSLPKMTEGFWNKSMLTEPGDGRKVVCHPTAWDLGKGDFRIKMCTKVTMEDFLTAHHEMGHIQYDMAYASQPYLLRNGANEGFHEAVGEVMSLSVATPKHLKTMGLLSPDFREDDETEINFLLKQALNIVGTLPFTYMLEKWRWMVFKGEIPKEEWMKKWWEMKREIVGVVEPVPHDETYCDPASLFHVANDYSFIRYYTRTIFEFQFHEALCRIAQHNGPLHKCDISNSTDAGKKLHQMLSVGKSQAWTKTLEDIVDSRNMDVGPLLRYFKPLYTWLQEQNRKSYVGWNTDWSPYAD
- Kd: 2220 nM

B2: bACE2-Rm (Y41-Q42) mutant, mouse Fc tagged (Fc fusion)
chain: STTEDEAKKFLDKFNSKAEDLSYQSSLASWDYNTNISDENVQKMDEAGAKWSAFYEEQSKLAKNYPLEEIQNDTVKRQLQILQQSGSPVLSEDKSKRLNSILNAMSTIYSTGKVCKPNNPQECLLLEPGLDNIMGTSKDYNERLWAWEGWRAEVGKQLRPLYEEYVVLKNEMARGYHYEDYGDYWRRDYETEESSGPGYSRDQLMKDVDRIFTEIKPLYEHLHAYVRAKLMDTYPLHISPTGCLPAHLLGDMWGRFWTNLYPLTVPFGQKPNIDVTDAMLNQGWDANRIFKEAEKFFVSVSLPKMTEGFWNKSMLTEPGDGRKVVCHPTAWDLGKGDFRIKMCTKVTMEDFLTAHHEMGHIQYDMAYASQPYLLRNGANEGFHEAVGEVMSLSVATPKHLKTMGLLSPDFREDDETEINFLLKQALNIVGTLPFTYMLEKWRWMVFKGEIPKEEWMKKWWEMKREIVGVVEPVPHDETYCDPASLFHVANDYSFIRYYTRTIFEFQFHEALCRIAQHNGPLHKCDISNSTDAGKKLHQMLSVGKSQAWTKTLEDIVDSRNMDVGPLLRYFKPLYTWLQEQNRKSYVGWNTDWSPYAD
- Kd: 250 nM
